According to patent US20260234226A1 (IMAGINAB, published 2026):

Tests used:
[1] = biological target: T1, his-tagged-DLL3 antigen (purified human/cynomolgus/dog/mouse/rat or minipig DLL3 antigen) (human/cynomolgus/dog/mouse/rat or …); experiment: biolayer interferometry, his-tagged DLL3 on a Ni-NTA tip, minibody at 100 nM; the table gives no unit, nm is from the axis 'Binding (nm)'
T1 construct: Antigen loaded on nickel-NTA tips for biolayer interferometry; also called Delta-like protein 3
Experimental: (§1) As disclosed herein, the binding kinetics of the novel antigen binding constructs to a purified human/cynomolgus/dog/mouse/rat or minipig DLL3 antigen was assessed using biolayer interferometry (TABLE 9) (FIG. 9). The his-tagged-DLL3 antigen was diluted in phosphate buffer saline (PBS) at 10 μg/mL and loaded on a nickel-NTA tip until saturation. The on-rate (Kon) and off-rate (Koff), and the dissociation constant KD, where recorded on Octet BLItz instrument. Dilution samples of the antigen binding construct were prepared in PBS at concentrations between 100 nM and 0.1 nM, by 2.5× dilutions and binding curves recorded at each concentration. Off-rate curves were recorded by immersion of the tip in PBS.

[2] = biological target: T2, purified human/cynomolgus/dog/mouse/rat or minipig DLL3 antigen (ELISA coat) (human/cynomolgus/dog/mouse/rat or …); experiment: ELISA on plate-coated recombinant DLL3 antigen, A650 readout, panel with IAB57M1-7, IAB57M2-8, IAB57M1-3 and IAB57M2-6
T2 construct: May be the same protein as the his-tagged antigen used for BLI
Experimental: Binding affinity of the novel antigen binding constructs to a purified human/cynomolgus/dog/mouse/rat or minipig DLL3 antigen was assessed using ELISA. For this assay, a 96 well ELISA plate was coated with the DLL3 antigen diluted to a concentration of […] in coating buffer (0.05M sodium carbonate-bicarbonate buffer, pH 9.6). 100 μl of this coating solution was added to each well in the plate and incubate at 4° C. overnight. The plate was washed 3 times with 300 μl per well of washing buffer (PBS with 0.05% Tween-20). After the last wash, the plate was blocked by adding to each well 200 μl of blocking buffer (PBS with 1% BSA) warmed to room temperature. The plate was then incubated at room temperature for 1 hour under gentle agitation. After blocking, the plate was washed 3 times with 300 μl per well of washing buffer. Dilution samples for each minibody were created by making 2.5× dilutions from a starting sample at 100 ng/mL, or 250 ng/mL, or 1000 ng/mL or 3000 ng/mL in 100 μL sample buffer (PBS with 1% BSA). […]
Detection was performed by adding 100 μl of HRP labeled detection secondary antibody at an appropriate dilution and incubating the plate at room temperature for 1 hour under gentle agitation. […] The plate is recorded by reading OD at 650 nm in a plate reader within 20 min after terminating the reaction.

[3] = biological target: T3, DLL3 on tumor cells of the SHP-77 and NCI-H82 cell lines (UniProt Q9NYJ7 27-618, limits assumed); experiment: flow cytometry on SHP-77 tumor cells, mean fluorescence; the legend gives no unit, nM is from the axis '[Minibody],nM'
T3 construct: whole, on cells; also called cellular targets
T3 sequence (looked up): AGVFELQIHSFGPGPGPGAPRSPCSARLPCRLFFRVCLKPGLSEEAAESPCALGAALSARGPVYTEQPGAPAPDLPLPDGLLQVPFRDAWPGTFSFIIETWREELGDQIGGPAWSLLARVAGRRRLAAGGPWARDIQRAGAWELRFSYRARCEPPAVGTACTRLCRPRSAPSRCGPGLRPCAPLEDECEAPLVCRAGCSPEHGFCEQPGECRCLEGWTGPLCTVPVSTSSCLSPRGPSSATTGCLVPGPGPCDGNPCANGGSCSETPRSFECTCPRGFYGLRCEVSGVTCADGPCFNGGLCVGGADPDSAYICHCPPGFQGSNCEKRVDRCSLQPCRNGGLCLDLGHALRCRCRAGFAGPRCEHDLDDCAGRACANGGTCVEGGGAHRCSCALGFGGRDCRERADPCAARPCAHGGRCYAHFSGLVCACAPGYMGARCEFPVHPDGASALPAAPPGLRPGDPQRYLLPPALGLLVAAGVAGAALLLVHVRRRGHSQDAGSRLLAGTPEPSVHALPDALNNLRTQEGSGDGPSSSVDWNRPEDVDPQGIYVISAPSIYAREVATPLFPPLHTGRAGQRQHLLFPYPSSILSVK
Experimental: (§2) As disclosed herein, the binding of constructs to cellular targets was assessed using flow cytometry. Stock of 2.5× serial dilution of minibodies were created starting from a concentration of 100 nM in 180 μl FACS buffer (PBS 2% FBS). Cells were added to a Corning V-bottom polypropylene cell culture plate at 200,000 cells/well. The cells were centrifuged at 100 rpm for 3 minutes and the supernatant discarded. The minibody dilution series were transferred to the plate containing cell pellets and incubated for 1 hr at 4° C. The plate was then washed 3 times with FACS buffer at 200 μl/well, discarding supernatant after each wash by centrifugation at 1000 rpm. 50 μl/well of detection antibody R&D AlexaFluor-647 Goat anti Human (H+L) was added at a 1:100 dilution in FACS buffer and incubated at 4° C. 1 hr. The plate was washed 3 times with FACS buffer at 200 μl/well, discarding supernatant after each wash by centrifuging at 1000 rpm. Cells were then fixed by adding 100 μl of 1% paraformaldehyde in PBS and incubating at room temperature for 15 minutes. 100 μl of PBS were added to each well and the plate was analyzed by flow cytometry using the allophycocyanin fluorescence setting.

[4] = biological target: T3, DLL3 on tumor cells of the SHP-77 and …; experiment: flow cytometry on NCI-H82 tumor cells, mean fluorescence; the legend gives no unit, nM is from the axis '[Minibody],nM'
Experimental: as §2

[5] = biological target: T2, purified human/cynomolgus/dog/mouse/rat …; experiment: ELISA, plate coated with purified DLL3 antigen, HRP secondary (FIG. 8)
Experimental: Binding affinity of the novel antigen binding constructs to a purified human/cynomolgus/dog/mouse/rat or minipig DLL3 antigen was assessed using ELISA. For this assay, a 96 well ELISA plate was coated with the DLL3 antigen diluted to a concentration of […] in coating buffer (0.05M sodium carbonate-bicarbonate buffer, pH 9.6). 100 μl of this coating solution was added to each well in the plate and incubate at 4° C. overnight. The plate was washed 3 times with 300 μl per well of washing buffer (PBS with 0.05% Tween-20). After the last wash, the plate was blocked by adding to each well 200 μl of blocking buffer (PBS with 1% BSA) warmed to room temperature. The plate was then incubated at room temperature for 1 hour under gentle agitation. After blocking, the plate was washed 3 times with 300 μl per well of washing buffer. Dilution samples for each minibody were created by making 2.5× dilutions from a starting sample at 100 ng/mL, or 250 ng/mL, or 1000 ng/mL or 3000 ng/mL in 100 μL sample buffer (PBS with 1% BSA). The dilution samples were transferred to the assay plate and incubated at room temperature for 1 hour under gentle agitation. The plate was then washed 3 times with 300 μl per well of washing buffer.
Detection was performed by adding 100 μl of HRP labeled detection secondary antibody at an appropriate dilution and incubating the plate at room temperature for 1 hour under gentle agitation. The plate was then washed 3 times with 300 μl per well of washing buffer. For color development, 100 μl of TMB substrate regent, pre-warmed to room temperature, was added to the plate and incubated in the dark at room temperature for 15 min. The reaction was then stopped by adding 100 μl of 650 nm stop solution to the plate and mixed for 1 min at room temperature under gentle agitation. The plate is recorded by reading OD at 650 nm in a plate reader within 20 min after terminating the reaction.

[6] = biological target: T1, his-tagged-DLL3 antigen (purified …); experiment: biolayer interferometry (Octet BLItz), his-tagged DLL3 on nickel-NTA tip, minibody in solution
Experimental: as §1

T1 sequence (Q9NYJ7 whole entry): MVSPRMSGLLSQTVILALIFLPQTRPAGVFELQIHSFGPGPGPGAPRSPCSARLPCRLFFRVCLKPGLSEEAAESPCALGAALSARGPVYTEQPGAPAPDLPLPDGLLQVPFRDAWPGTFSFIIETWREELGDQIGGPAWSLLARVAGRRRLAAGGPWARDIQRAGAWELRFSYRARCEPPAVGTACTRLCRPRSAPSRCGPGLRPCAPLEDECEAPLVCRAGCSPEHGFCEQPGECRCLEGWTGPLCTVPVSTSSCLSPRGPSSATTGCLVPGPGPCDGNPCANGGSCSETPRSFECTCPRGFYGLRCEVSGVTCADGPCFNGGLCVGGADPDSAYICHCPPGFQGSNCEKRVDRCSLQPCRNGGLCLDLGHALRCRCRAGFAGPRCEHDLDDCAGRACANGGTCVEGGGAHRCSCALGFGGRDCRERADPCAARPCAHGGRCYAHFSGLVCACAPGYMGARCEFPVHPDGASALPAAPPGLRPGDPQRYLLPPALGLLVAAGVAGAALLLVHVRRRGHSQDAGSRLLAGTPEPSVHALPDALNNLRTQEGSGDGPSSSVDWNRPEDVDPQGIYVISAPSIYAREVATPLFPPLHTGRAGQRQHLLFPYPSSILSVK
T2 sequence (Q9NYJ7 whole entry): as above

R equilibrium [1]: 1.04 nm
EC50 (read off the curve) [2]: ~100 pM
EC50 [3]: 10 pM
EC50 [4]: 40 pM
EC50 [5]: 109 pM
Kd [6]: 4000 pM
koff [6]: 0.00239 s⁻¹
kon [6]: 599000 M⁻¹ s⁻¹
B1: IAB57M1-3 (other)
chain: EIVMTQSPATLSVSPGERATLSCKASQSVSNDVVWYQQKPGQAPRLLIYDASNRYTGIPARFSGSGSGTEFTLTISSLQSEDFAVYYCQQDYTSPWTFGQGTKLEIKGSTSGGGSGGGSGGGGSSQVQLVQSGAEVKKPGASVKVSCKASGYTFTNYGMNWVRQAPGQGLEWMGWINTYTGEPTYADDFKGRVTMTTDTSTSTAYMELRSLRSDDTAVYYCARIGDSSPSDYWGQGTLVTVSSEPKSSDKTHTCPPCPPCGGGSSGGGSGGQPREPQVYTLPPSREEMTKNQVSLTCLVKGFYPSDIAVEWESNGQPENNYKTTPPVLDSDGSFFLYSKLTVDKSRWQQGNVFSCSVMHEALHNHYTQKSLSLSPG
notes: Signal peptide left out
